Results as given in PMC9907325.

Columns and labels:
[1] = biological target: Fc-tagged human IL-2Rαβγ (Acro, ILG-H5257) (human) (UniProt P01589)
[2] = biological target: His-tagged cynomolgus IL-2Rα (Sino, 90265-C08H) (cynomolgus monkey); assay: SPR; His-tagged human, mouse or cynomolgus IL-2Rα chemically immobilised by amine coupling on CM5 chips; 2-fold dilutions of HCW9302 or IL-2 injected 90 s, dissociation 210 s; regeneration 3 M magnesium chloride; 1:1 fitting model; KD apparent
[3] = biological target: HCW9302 (IL-2/TF/IL-2 fusion protein) (human) (UniProt P13726); assay: SEC; HPLC-SEC profile of purified native HCW9302
[4] = biological target: Fc-tagged human IL-2Rα (Acro, ILA-H5251) (human) (UniProt P01589); assay: SPR; Biacore 8K; Fc-tagged receptors captured by immobilised anti-human IgG (Fc) antibody on CM5 chips; 2-fold dilutions of HCW9302 or IL-2 injected 120 s, dissociation 300 s; regeneration 3 M magnesium chloride; 1:1 fitting model; KD apparent
[5] = biological target: Fc-tagged human IL-2Rαβγ (Acro, ILG-H5257) (human) (UniProt P01589); assay: as above
[6] = biological target: Fc-tagged human IL-2Rβγ (Acro, ILG-H5254) (human) (UniProt P14784); assay: as above
[7] = biological target: His-tagged human IL-2Rα (Acro, ILA-H5251) (human) (UniProt P01589); assay: SPR; His-tagged human, mouse or cynomolgus IL-2Rα chemically immobilised by amine coupling on CM5 chips; 2-fold dilutions of HCW9302 or IL-2 injected 90 s, dissociation 210 s; regeneration 3 M magnesium chloride; 1:1 fitting model; KD apparent
[8] = biological target: His-tagged mouse IL-2Rα (Acro, ILG-M52H9) (mouse) (UniProt P01590); assay: as above
Chain of UniProt P01590 (P01590 22-236): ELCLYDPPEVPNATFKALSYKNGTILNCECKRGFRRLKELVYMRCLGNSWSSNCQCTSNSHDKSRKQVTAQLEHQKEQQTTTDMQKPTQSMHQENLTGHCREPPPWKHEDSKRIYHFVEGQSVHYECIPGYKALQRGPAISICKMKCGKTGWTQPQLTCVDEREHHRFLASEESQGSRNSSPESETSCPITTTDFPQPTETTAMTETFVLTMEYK

Chain of UniProt P14784 (P14784 27-240, chain 1 of 2): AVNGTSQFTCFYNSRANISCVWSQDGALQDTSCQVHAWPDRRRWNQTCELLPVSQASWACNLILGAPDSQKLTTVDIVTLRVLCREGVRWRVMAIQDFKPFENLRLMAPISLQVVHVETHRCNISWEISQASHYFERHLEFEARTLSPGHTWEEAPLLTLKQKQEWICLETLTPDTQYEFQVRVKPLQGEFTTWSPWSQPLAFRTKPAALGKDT
Chain of UniProt P14784 (P31785 23-262, chain 2 of 2, further chain): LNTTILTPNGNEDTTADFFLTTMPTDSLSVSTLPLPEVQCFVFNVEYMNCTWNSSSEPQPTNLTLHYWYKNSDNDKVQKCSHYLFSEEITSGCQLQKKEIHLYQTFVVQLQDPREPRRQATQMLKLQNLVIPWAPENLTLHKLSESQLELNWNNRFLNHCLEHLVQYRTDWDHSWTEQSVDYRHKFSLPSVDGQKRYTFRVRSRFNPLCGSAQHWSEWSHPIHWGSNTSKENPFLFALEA

Substance	phosphorylation of STAT5 in human Treg cells (PBMC, 30 min, 0.15-15000 pM), half-maximal stimulation (EC50) [1] [pM]	Kd [2] [nM]	koff [2] [s⁻¹]	kon [2] [M⁻¹ s⁻¹]	stoichiometry N [3]	Kd [4] [nM]	koff [4] [s⁻¹]	Kd [5] [nM]	koff [5] [s⁻¹]	kon [5] [M⁻¹ s⁻¹]	Kd [6] [nM]	koff [6] [s⁻¹]	kon [6] [M⁻¹ s⁻¹]	Kd [7] [nM]	koff [7] [s⁻¹]	kon [7] [M⁻¹ s⁻¹]	Kd [8] [nM]	koff [8] [s⁻¹]	kon [8] [M⁻¹ s⁻¹]
aldesleukin (Proleukin), clinical grade rhIL-2 (from UniProt P60568 21-153) (ligand)	43.1																		
human IL-2 (Acro, S13-H5113) (from UniProt P60568 21-153) (ligand)		16.3	0.212	1.3e+08															
HCW9302 (IL-2/TF/IL-2 fusion protein) (from UniProt P13726 33-251) (ligand)	6.12	0.00319	0.000457	1.43e+08	2	0.00199	0.107	0.00201	0.000771	3.83e+08	0.117	0.00017	1.45e+06	0.0132	0.00289	2.18e+08	0.296	0.000918	3.1e+06
